Measured values as given in US20210079037A1 (TECHNISCHE UNIVERSIT T M NCHEN, published 2021).

Key:
[1] = biological target: T1, recombinant human serum albumin (HSA) produced in rice (Sigma-Aldrich) (human, UniProt P02768 25-609); assay: ELISA, capture of the ABD fusion on HSA-coated plate
T1 construct: also called recombinant HSA
Protocol: (§1) ELISA was performed at ambient temperature in a 96-well Maxisorb microtiter plate (Nunc, Langenselbold, Germany).
(§2) Then, the wells were blocked with […] Roti-Block (Carl Roth, Karlsruhe, Germany) diluted 1:10 in ddH₂O for 1 h and washed three times with PBS containing 0.1% v/v Tween 20 (PBS/T). After that, the purified ProtL^Caf-ABD fusion protein from Example 11 was applied in a dilution series in PBS/T and incubated for 1 h to effect complex formation between the ABD moiety and the pre-adsorbed HSA. The wells were then washed three times with PBS/T and incubated with 50 μl of a 1:1000 dilution in PBS/T of the aforementioned mouse anti-6×His Ig-AP conjugate.

[2] = biological target: T2, mouse anti-6×His antibody alkaline phosphatase (AP) conjugate (Arigo Biolaboratories); assay: ELISA: ProtL-ABD in a dilution series captured on coated HSA, mouse anti-6xHis Ig-AP conjugate (1:1000) applied, kept in daylight, AP activity as dA/dt [left graph]
T2 construct: also called mouse anti-6×His Ig-AP conjugate; Ig-AP conjugate
Protocol: as §1, §2

[3] = biological target: T2, mouse anti-6×His antibody alkaline …; assay: ELISA: ProtL-ABD in a dilution series captured on coated HSA, mouse anti-6xHis Ig-AP conjugate (1:1000) applied, UV light of 365 nm for 5 min before the washes, AP activity as dA/dt [left graph]
Protocol: as §1, §2

T1 sequence (P02768 25-609 limits assumed): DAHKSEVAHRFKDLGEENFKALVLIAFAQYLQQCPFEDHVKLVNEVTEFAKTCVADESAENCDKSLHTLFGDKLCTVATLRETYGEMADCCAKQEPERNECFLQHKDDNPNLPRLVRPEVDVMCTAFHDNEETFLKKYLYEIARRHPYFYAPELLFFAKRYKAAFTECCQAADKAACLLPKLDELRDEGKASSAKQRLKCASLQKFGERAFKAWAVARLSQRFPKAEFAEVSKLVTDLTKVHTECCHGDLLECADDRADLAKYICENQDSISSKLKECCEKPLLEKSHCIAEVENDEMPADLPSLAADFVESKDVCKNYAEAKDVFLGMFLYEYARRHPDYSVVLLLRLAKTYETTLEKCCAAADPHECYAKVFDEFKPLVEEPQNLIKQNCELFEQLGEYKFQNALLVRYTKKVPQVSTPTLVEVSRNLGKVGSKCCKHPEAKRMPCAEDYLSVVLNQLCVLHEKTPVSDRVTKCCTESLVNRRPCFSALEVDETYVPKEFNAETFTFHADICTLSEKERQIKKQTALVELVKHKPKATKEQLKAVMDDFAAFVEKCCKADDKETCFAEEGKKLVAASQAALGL

B1: ProtL-ABD fusion protein (other)
chain: MKEEVTIKVNLIFADGKTQTAEFKGTFEEATAKAYAYADLLAKENGEYTADLEDGGNTINIKFAGGAVDANSLAEAKVLANRELDKYGVSDYYKNLINNAKTVEGVKALIDEILAALP
notes: also called protein L-ABD fusion protein; unmodified ProtL-ABD
[1]
  binding result: binds
[2]
  EC50 (read off the curve): ~40 nM
[3]
  EC50 (read off the curve): ~40 nM
